Source: patent US4137307A, “Process for preparing haptoglobin aqueous solution using strong anion exchanger” (The Green Cross Corporation, priority 1973, dated 1979)

Legend:
[1] = tested on: hemoglobin; test: Residual hemoglobin-binding capacity of haptoglobin after heat treatment (60° C., 10 hours); type: physicochemical; settings: for Residual hemoglobin-binding capacity of haptoglobin after heat treatment: haptoglobin solution of Example 1, 60° C., 10 hours
Description: In this example, the relation between the amount used and the stabilizing effects of various stabilizers was examined by measuring the residual hemoglobin-binding capacity of haptoglobin after heat treatment.
The stabilizers used were glycine and alanine as neutral amino acids, and mannitol and glucose as saccharides. Each of the said stabilizers was dissolved in haptoglobin solution in such proportions as shown in Table 7 and then heated at 60° C. for 10 hours. Thereafter, the hemoglobin-binding capacity of the haptoglobin of the solution was measured, and the ratio thereof to the value before heat treatment represented by percentage.
For comparison, the haptoglobin solution without addition of stabilizer was subjected to the same heat treatment as above, and the hemoglobin-binding capacity of haptoglobin of the solution was measured.

[2] = tested on: hemoglobin; test: as above; type: physicochemical; settings: dialysate of Example 3
[3] = tested on: arterial blood pressure of the dog; test: Hypotensive activity (arterial blood pressure of the dog before and after administration); type: in vivo; settings: less than 10% evaluated as hypotensive activity negative
Description: (§1) The acute toxicity was represented by LD50 measured when the aqueous haptoglobin solution was intravenously injected into mice and rats. The hypotensive activity was represented by the ratio of arterial blood pressure of the dog before and after administration of haptoglobin solution. A ratio less than 10% was evaluated as hypotensive activity negative. The measurement of HB-Ag was made by the radioimmunoassay method (Sadatake Kato et al.: Japanese Patent Publication No. 49,919/73) using Ausria-125 kit, products of Abbott Co.

[4] = tested on: Mice; test: Acute toxicity, LD50, intravenous, mice; type: in vivo
Description: as §1

[5] = tested on: Rats; test: Acute toxicity, LD50, intravenous, rats; type: in vivo
Description: as §1

[6] = tested on: hemoglobin; test: Hemoglobin-binding capacity of haptoglobin (polyacrylamide gel thin layer electrophoresis, benzidine staining); settings: maximum addition of hemoglobin with no free hemoglobin observed
[7] = tested on: HB-Ag; test: HB-Ag measurement by radioimmunoassay (Ausria-125 kit); design: species or system hepatitis B virus
Description: as §1

[8] = tested on: patient; test: Clinical application to a patient (pelvis fracture, urethra rupture and bleeding shock); type: in vivo, human
Source text: An example, in which the haptoglobin prepared in Example 2 was clinically applied to a patient, is illustrated below.
The patient was a person, who had been severely stricken on the left waist with lumber that had fallen down during their work and had been sent to hospital as an emergency case. The diagnosis was pelvis fracture, urethra rupture and bleeding shock. Immediately after hospitalization, the patient was subjected to an operation for urinary tract reconstruction. During the operation, the total amount of bleeding was 7,500 ml, the total amount of blood transfused was 4,200 ml, and the total artificial expander transfused was 4,200 ml. […] The clinical progress of the patient after the operation is shown in the accompanying drawing. […] At this stage, 250 ml of a 5% solution of the haptoglobin prepared according to the present invention in isotonic sodium chloride solution was administered to the patient drop-wise intravenously.

[9] = tested on: rabbits; test: Survival of rabbits after haptoglobin and/or hemoglobin administration; type: in vivo; settings: fourth day, 10 tested
Source text: (§2) Thirty mature rabbits of body weight ranging from 2.3 to 2.9 kg were equally divided into 3 groups (10 rabbits per group), and continuously administered with haptoglobin and/or hemoglobin, and then the survival of the rabbits was observed. At the end of the observation, the survived rabbits were anatomized, and various organs thereof were subjected to histopathological examination.
(§3) A 5% solution of haptoglobin in isotonic sodium chloride solution prepared according to the present invention was continuously administered drop-wise intravenously once a day at a dose of 0.8 g/kg (body weight).
(§4) A 10% solution of hemoglobin in isotonic sodium chloride solution isolated from red blood cells of the rabbit was continuously administered drop-wise intraveneously once a day at a dose of 0.4 g/kg (body weight).
(§5) Hemoglobin and then the haptoglobin of the invention were administered in the same manner and dose in the case of both the first and the second groups.
On the fourth day of administration, the survival of the rabbits of each group was examined.

[10] = tested on: mouse or rat and humans; test: Toxicity / adverse effects on injection of the aqueous solution of haptoglobin; type: in vivo, human
[11] = tested on: rabbits; test: Histopathological examination of rabbits after haptoglobin and/or hemoglobin administration; type: in vivo
Source text: as §2, §3, §4, §5

[12] = 250 ml of a 5% solution, drop-wise intravenously
[13] = First group: haptoglobin 0.8 g/kg i.v. once a day
[14] = Third group: hemoglobin 0.4 g/kg then haptoglobin 0.8 g/kg i.v. once a day
[15] = Second group: hemoglobin 0.4 g/kg i.v. once a day

## C[C@H](N)C(=O)O [Alanine, alanine]
[1]; stabilizer amount 15%
  Residual hemoglobin-binding capacity of haptoglobin after heat treatment: 50%
[1]; stabilizer amount 20%
  Residual hemoglobin-binding capacity of haptoglobin after heat treatment: 75%
[2]; stabilizer amount 20%
  Residual hemoglobin-binding capacity of haptoglobin after heat treatment: 83%

## OC[C@H]1OC(O)[C@H](O)[C@@H](O)[C@@H]1O (some centres unmarked) [Glucose, glucose]
[1]; stabilizer amount 15%
  Residual hemoglobin-binding capacity of haptoglobin after heat treatment: 45%
[1]; stabilizer amount 20%
  Residual hemoglobin-binding capacity of haptoglobin after heat treatment: 60%
[2]; stabilizer amount 20%
  Residual hemoglobin-binding capacity of haptoglobin after heat treatment: 72%

## NCC(=O)O [Glycine, glycine]
[1]; stabilizer amount 2.25%
  Residual hemoglobin-binding capacity of haptoglobin after heat treatment: 20%
[1]; stabilizer amount 5%
  Residual hemoglobin-binding capacity of haptoglobin after heat treatment: 35%
[1]; stabilizer amount 10%
  Residual hemoglobin-binding capacity of haptoglobin after heat treatment: 70%
[1]; stabilizer amount 15%
  Residual hemoglobin-binding capacity of haptoglobin after heat treatment: 95%
[1]; stabilizer amount 20%
  Residual hemoglobin-binding capacity of haptoglobin after heat treatment: 95%
[2]; stabilizer amount 20%
  Residual hemoglobin-binding capacity of haptoglobin after heat treatment: 92%

## OC[C@@H](O)[C@@H](O)[C@H](O)[C@H](O)CO [Mannitol, mannitol]
[1]; stabilizer amount 5%
  Residual hemoglobin-binding capacity of haptoglobin after heat treatment: 15%
[1]; stabilizer amount 7%
  Residual hemoglobin-binding capacity of haptoglobin after heat treatment: 40%
[1]; stabilizer amount 10%
  Residual hemoglobin-binding capacity of haptoglobin after heat treatment: 55%
[1]; stabilizer amount 15%
  Residual hemoglobin-binding capacity of haptoglobin after heat treatment: 80%
[1]; stabilizer amount 20%
  Residual hemoglobin-binding capacity of haptoglobin after heat treatment: 85%
[2]; stabilizer amount 20%
  Residual hemoglobin-binding capacity of haptoglobin after heat treatment: 85%

## OC[C@@H](O)[C@@H](O)[C@H](O)[C@@H](O)CO [Sorbitol, sorbitol]
[2]; stabilizer amount 20%
  Residual hemoglobin-binding capacity of haptoglobin after heat treatment: 76%

## OC[C@H]1O[C@@](CO)(O[C@H]2O[C@H](CO)[C@@H](O)[C@H](O)[C@H]2O)[C@@H](O)[C@@H]1O [Sucrose, sucrose]
[2]; stabilizer amount 20%
  Residual hemoglobin-binding capacity of haptoglobin after heat treatment: 68%

## Example 1 before treatment: haptoglobin solution of Example 1 before the treatment with the ion exchanger
[3]
  Hypotensive activity: 18%

## Example 2 before treatment: haptoglobin solution of Example 2 before the treatment with the ion exchanger
[3]
  Hypotensive activity: 12.0%

## Example 2: sterile aqueous haptoglobin solution from Cohn fraction IV, heated with 20% mannitol, purified on GE Cellulose (guanidoethyl cellulose)
[4]
  LD50: ≥ 12000 mg/kg
[5]
  LD50: ≥ 10000 mg/kg
[6]
  Hemoglobin-binding capacity: 0.68 mg hemoglobin/mg haptoglobin
[3]
  Hypotensive activity: 6.0%
[7]
  HB-Ag: Negative

## Example 3 before treatment: haptoglobin solution of Example 3 before the treatment with the ion exchanger
[3]
  Hypotensive activity: 24.0%

## Experiment 4: haptoglobin solution by the method of Example 1 with CM-cellulose, non-adsorbed fraction, 0.05 M phosphate buffer (pH 7.0)
[4]
  LD50: ≥ 11700 mg/kg
[5]
  LD50: ≥ 10500 mg/kg
[6]
  Hemoglobin-binding capacity: 0.61 mg hemoglobin/mg haptoglobin
[3]
  Hypotensive activity: 9.8%
[7]
  HB-Ag: Negative

## Experiment 5: haptoglobin solution by the method of Example 1 with CM-Sephadex, non-adsorbed fraction, 0.05 M phosphate buffer (pH 7.0)
[4]
  LD50: ≥ 11700 mg/kg
[5]
  LD50: ≥ 10500 mg/kg
[6]
  Hemoglobin-binding capacity: 0.62 mg hemoglobin/mg haptoglobin
[3]
  Hypotensive activity: 9.0%
[7]
  HB-Ag: Negative

## haptoglobin
[8]; [12]
  Amount of urine: increase
  General symptoms of the patient: gradually improved
[8]; 250 ml of a 5% solution, drop-wise intravenously, person
  Time to disappearance of blood pigments from the urine: blood pigments disappeared from the urine within several hours after haptoglobin administration
[8]; even 6 months after recovery
  Adverse effect due to the administration: No adverse effect
[1]; absence of stabilizer
  Hemoglobin-binding capacity after heat treatment in the absence of stabilizer: lost its hemoglobin-binding capacity
[1]; aqueous solution without stabilizer, 60° C. for 10 hours
  Activity of haptoglobin after heat treatment: substantially nil
[1]; no stabilizer (None)
  Residual hemoglobin-binding capacity of haptoglobin after heat treatment: ≈ 0%
[1]; with stabilizer, 60° C. and 10 hours
  Haptoglobin activity maintained after heat treatment: 95%
[2]; no stabilizer (None)
  Residual hemoglobin-binding capacity of haptoglobin after heat treatment: 0%
[9]; [13]
  Number of dead: 0
  Number of survival: 10
[9]; [14]
  Number of dead: 1
  Number of survival: 9
[10]; 5% solution in isotonic sodium chloride, drop-wise intravenously, human adult
  Adverse effect: no adverse effect is observed at all
[10]; injected in large quantities into mouse, rat, humans
  Toxicity: extremely low
[10]; mouse or rat and humans
  Adverse effects on injection in large quantities: no adverse effects
[11]; First group: haptoglobin for 14 days
  Histopathology: no change was observed in its kidney, spleen and lung, and only slight narrowing of sinusoid and deposition of iron were observed in the liver
[11]; rabbits, Example 6
  Prevention of renal troubles caused by hemoglobin; adverse effects (conclusion): does not substantially bring about any adverse effects and has the excellent effect of preventing renal troubles caused by hemoglobin

## hemoglobin
[9]; [15]
  Number of dead: 7
  Number of survival: 3
[11]; Second group: hemoglobin for 6 days
  Histopathology: marked deposition of iron was observed from proximal tuble to collecting tube of the kidney, thinning of renal epithelial cells was observed, propagation of reticular cells was observed in the spleen, and marked narrowing of sinusoid and deposition of iron were observed in the liver
